These are literature values, as cited in paper PMC2853873.

In general, Ki refers to a dissociation constant, usually derived from enzyme kinetics or from competition with a known ligand.

The target of series [1] is ADAMTS-2 (Homo sapiens) (UniProt O95450).
Series [2] has the same target. The source holds these as a separate data set.

Read-outs that look alike come from different tables or passages of the source.

Chain of UniProt O95450 (O95450 254-1211): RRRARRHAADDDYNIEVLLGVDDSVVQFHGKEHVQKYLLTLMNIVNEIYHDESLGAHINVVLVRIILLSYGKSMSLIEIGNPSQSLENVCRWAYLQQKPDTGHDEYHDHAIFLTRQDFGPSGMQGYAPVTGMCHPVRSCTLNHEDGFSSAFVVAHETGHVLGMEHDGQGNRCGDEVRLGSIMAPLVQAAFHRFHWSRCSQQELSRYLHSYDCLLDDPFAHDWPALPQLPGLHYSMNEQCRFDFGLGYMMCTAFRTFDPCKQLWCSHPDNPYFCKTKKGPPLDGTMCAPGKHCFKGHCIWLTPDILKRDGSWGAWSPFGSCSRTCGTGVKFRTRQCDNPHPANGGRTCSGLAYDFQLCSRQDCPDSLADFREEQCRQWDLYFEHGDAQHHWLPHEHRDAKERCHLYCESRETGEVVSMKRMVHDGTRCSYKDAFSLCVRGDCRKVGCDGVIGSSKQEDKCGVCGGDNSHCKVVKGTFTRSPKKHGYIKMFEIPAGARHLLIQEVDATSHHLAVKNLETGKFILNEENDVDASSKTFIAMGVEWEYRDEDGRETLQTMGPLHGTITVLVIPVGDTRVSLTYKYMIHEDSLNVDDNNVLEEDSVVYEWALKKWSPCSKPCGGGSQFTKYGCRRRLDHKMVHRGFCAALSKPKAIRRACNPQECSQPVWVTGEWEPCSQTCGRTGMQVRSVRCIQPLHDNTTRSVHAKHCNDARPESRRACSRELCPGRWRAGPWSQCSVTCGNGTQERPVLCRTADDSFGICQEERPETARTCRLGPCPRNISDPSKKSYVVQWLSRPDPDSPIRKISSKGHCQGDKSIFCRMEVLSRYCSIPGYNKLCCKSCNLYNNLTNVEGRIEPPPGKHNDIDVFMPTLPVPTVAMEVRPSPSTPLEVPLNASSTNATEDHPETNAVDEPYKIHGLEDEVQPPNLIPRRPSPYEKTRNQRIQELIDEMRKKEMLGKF

On to “N-TIMP-3 N-terminal domain (from UniProt P35625)”, for which the values for the inhibitory constant (Ki) with ADAMTS-2 (Homo sapiens) [1] and with ADAMTS-2 (Homo sapiens) [2] were 600 nM and 160 nM, respectively.
